Experimental data from patent US20240109955A1.

Legend:
Test in all cases: cell-based or functional assay
[1] = biological target: SARS-CoV-2 spike (S) protein, Omicron sublineage BA.4/5 (SARS-CoV-2)
[2] = biological target: SARS-CoV-2 spike protein, Omicron sublineage BA.4/5 (SARS-CoV-2) (UniProt P0DTC2)
[3] = biological target: SARS-CoV-2 spike (S) protein, Omicron sublineage BQ.1.1 (SARS-CoV-2)
[4] = biological target: SARS-CoV-2 spike (S) protein, Omicron sublineage BA.2.75.2 (SARS-CoV-2)
[5] = biological target: SARS-CoV-2 Omicron BQ.1.1 spike protein (SARS-CoV-2)
[6] = biological target: SARS-CoV-2 spike protein, Omicron sublineage BQ.1.1 (SARS-CoV-2) (UniProt P0DTC2)
[7] = biological target: SARS-CoV-2 Omicron BA.4/5 spike protein (SARS-CoV-2)
[8] = biological target: SARS-CoV-2 Omicron BA.2.75.2 spike protein (SARS-CoV-2)
[9] = biological target: SARS-CoV-2 spike protein, Omicron BQ.1.1 (SARS-CoV-2)
[10] = biological target: SARS-CoV-2 spike protein, Omicron sublineage BF.7 (SARS-CoV-2) (UniProt P0DTC2)
[11] = biological target: SARS-CoV-2 spike protein, Omicron sublineage XBB1.5 (SARS-CoV-2) (UniProt P0DTC2)
[12] = biological target: SARS-CoV-2 spike protein, Omicron BA.4/5 (SARS-CoV-2)
[13] = biological target: SARS-CoV-2 Omicron BA.4/5 spike protein ([change]) (SARS-CoV-2) (UniProt P0DTC2)
[14] = biological target: SARS-CoV-2 Omicron BA.1 spike protein (SARS-CoV-2) (UniProt P0DTC2)
[15] = biological target: SARS-CoV-2 spike protein, Omicron sublineage BA.2.12.1 (SARS-CoV-2) (UniProt P0DTC2)
[16] = biological target: SARS-CoV-2 spike protein, Omicron sublineage BA.2 (SARS-CoV-2) (UniProt P0DTC2)
[17] = biological target: SARS-CoV-2 spike protein, Omicron sublineage XBB (SARS-CoV-2) (UniProt P0DTC2)
[18] = biological target: SARS-CoV-2 Omicron BQ.1.1 spike protein (SARS-CoV-2) (UniProt P0DTC2)
[19] = biological target: SARS-CoV-2 Omicron BA.2.75.2 spike protein (SARS-CoV-2) (UniProt P0DTC2)
[20] = biological target: SARS-CoV-2 Omicron XBB spike protein (SARS-CoV-2) (UniProt P0DTC2)

MX492 (A19-46 x A23-58H/B1-182L) (bispecific antibody), sequence (chain): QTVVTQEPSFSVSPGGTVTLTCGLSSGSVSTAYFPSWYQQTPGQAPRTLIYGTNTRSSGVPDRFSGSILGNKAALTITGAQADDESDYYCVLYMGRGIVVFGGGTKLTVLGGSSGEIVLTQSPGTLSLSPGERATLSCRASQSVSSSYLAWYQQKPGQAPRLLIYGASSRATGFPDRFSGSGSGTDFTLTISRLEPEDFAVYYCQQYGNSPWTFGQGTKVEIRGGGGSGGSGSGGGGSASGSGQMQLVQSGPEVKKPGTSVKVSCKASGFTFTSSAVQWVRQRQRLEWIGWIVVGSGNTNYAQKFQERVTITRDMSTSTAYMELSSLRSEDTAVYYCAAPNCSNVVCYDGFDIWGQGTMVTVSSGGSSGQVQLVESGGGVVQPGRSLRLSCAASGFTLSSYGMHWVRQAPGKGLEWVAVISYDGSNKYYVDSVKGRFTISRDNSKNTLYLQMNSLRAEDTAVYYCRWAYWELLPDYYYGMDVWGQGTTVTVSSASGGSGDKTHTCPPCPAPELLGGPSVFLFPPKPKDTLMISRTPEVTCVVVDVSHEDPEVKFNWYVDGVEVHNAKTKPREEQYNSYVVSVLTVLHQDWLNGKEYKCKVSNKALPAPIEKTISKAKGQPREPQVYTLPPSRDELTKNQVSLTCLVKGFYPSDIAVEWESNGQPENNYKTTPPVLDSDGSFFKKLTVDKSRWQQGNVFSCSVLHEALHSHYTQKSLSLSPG
A19-46 (antibody), sequence (VH): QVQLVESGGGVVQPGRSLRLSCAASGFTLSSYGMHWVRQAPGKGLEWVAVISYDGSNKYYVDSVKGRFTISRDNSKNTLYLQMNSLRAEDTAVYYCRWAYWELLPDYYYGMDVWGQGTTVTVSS
A19-46 (antibody), sequence (VL): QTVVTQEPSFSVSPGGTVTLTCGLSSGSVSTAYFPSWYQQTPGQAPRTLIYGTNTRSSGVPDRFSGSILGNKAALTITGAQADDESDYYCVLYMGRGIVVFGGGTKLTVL
A19-46.1 (antibody), sequence (VH): as the sequence (VH) above
A19-46.1 (antibody), sequence (VL): as the sequence (VL) above
MX413 (A19-61 x A23-58H/B1-182L) (bispecific antibody), sequence (chain): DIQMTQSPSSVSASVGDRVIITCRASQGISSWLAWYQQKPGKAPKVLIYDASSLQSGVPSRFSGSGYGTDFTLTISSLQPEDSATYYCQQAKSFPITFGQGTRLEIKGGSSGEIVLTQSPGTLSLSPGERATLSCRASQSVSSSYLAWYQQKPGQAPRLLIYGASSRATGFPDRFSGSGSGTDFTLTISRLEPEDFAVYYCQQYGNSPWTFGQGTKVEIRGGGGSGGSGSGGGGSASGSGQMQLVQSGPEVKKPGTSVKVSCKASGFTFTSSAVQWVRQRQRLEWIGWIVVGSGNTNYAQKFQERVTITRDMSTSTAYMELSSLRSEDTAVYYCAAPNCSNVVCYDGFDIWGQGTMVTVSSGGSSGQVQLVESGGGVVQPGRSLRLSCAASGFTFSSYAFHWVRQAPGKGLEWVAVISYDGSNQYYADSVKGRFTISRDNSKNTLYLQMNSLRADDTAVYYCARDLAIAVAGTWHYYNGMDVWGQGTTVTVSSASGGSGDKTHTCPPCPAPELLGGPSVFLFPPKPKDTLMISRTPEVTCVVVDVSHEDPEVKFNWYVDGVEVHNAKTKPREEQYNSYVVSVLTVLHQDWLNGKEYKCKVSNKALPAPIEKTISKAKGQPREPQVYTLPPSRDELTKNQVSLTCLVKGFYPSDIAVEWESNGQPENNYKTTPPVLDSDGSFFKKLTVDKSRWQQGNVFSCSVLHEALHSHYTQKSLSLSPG

A19-46 (antibody)
IC50, pseudovirus neutralization [1]: > 10 µg/mL | IC80, pseudovirus neutralization [1]: > 10 µg/mL | IC50, pseudovirus neutralization [2]: > 10000 nM | IC80, pseudovirus neutralization [2]: > 10000 nM | IC50, pseudovirus neutralization [3]: 0.386 µg/mL | IC80, pseudovirus neutralization [3]: 1.11 µg/mL | IC50, pseudovirus neutralization [4]: > 10 µg/mL | IC80, pseudovirus neutralization [4]: > 10 µg/mL | IC50, pseudovirus neutralization [5]: 0.386 µg/mL | IC80, pseudovirus neutralization [5]: 1.11 µg/mL | IC50, pseudovirus neutralization [6]: 386 nM | IC80, pseudovirus neutralization [6]: 1110 nM | IC50, pseudovirus neutralization [7]: > 10 µg/mL | IC80, pseudovirus neutralization [7]: > 10 µg/mL | IC50, pseudovirus neutralization [8]: > 10 µg/mL | IC80, pseudovirus neutralization [8]: > 10 µg/mL | IC50, pseudovirus neutralization [9]: 0.386 µg/mL | IC80, pseudovirus neutralization [9]: 1.11 µg/mL | IC50, pseudovirus neutralization [10]: 5300 nM | IC80, pseudovirus neutralization [10]: > 10000 nM | IC50, pseudovirus neutralization [11]: > 10000 nM | IC80, pseudovirus neutralization [11]: > 10000 nM | IC50, pseudovirus neutralization [12]: > 10 µg/mL | IC80, pseudovirus neutralization [12]: > 10 µg/mL

A19-46.1 (antibody)
IC50, pseudovirus neutralization [13]: > 10000 nM | IC80, pseudovirus neutralization [13]: > 10000 nM | IC50, pseudovirus neutralization [14]: 77 nM | IC80, pseudovirus neutralization [14]: 211 nM

A19-61.1 (antibody)
IC50, pseudovirus neutralization [13]: 19 nM | IC80, pseudovirus neutralization [13]: 31 nM | IC50, pseudovirus neutralization [14]: > 10000 nM | IC80, pseudovirus neutralization [14]: > 10000 nM

A23-58.1 (antibody)
IC50, pseudovirus neutralization [15]: 100 nM | IC80, pseudovirus neutralization [15]: 504 nM | IC50, pseudovirus neutralization [16]: 263 nM | IC80, pseudovirus neutralization [16]: 1080 nM

A23-58H/B1-182L hybrid antibody
IC50, pseudovirus neutralization [13]: > 10000 nM | IC80, pseudovirus neutralization [13]: > 10000 nM | IC50, pseudovirus neutralization [14]: 53 nM | IC80, pseudovirus neutralization [14]: 90 nM

B1-182.1 (antibody)
IC50, pseudovirus neutralization [15]: 165 nM | IC80, pseudovirus neutralization [15]: 1380 nM | IC50, pseudovirus neutralization [16]: 320 nM | IC80, pseudovirus neutralization [16]: 1210 nM

MX413 (A19-61 x A23-58H/B1-182L) (bispecific antibody)
IC50, pseudovirus neutralization [13]: 4 nM | IC80, pseudovirus neutralization [13]: 8 nM | IC50, pseudovirus neutralization [14]: 1290 nM | IC80, pseudovirus neutralization [14]: 6540 nM

MX492 (A19-46 x A23-58H/B1-182L) (bispecific antibody)
IC50, pseudovirus neutralization [13]: > 10000 nM | IC80, pseudovirus neutralization [13]: > 10000 nM | IC50, pseudovirus neutralization [14]: 1 nM | IC80, pseudovirus neutralization [14]: 3 nM

S2E12 (antibody)
IC50, pseudovirus neutralization [15]: 15.6 nM | IC80, pseudovirus neutralization [15]: 46.6 nM | IC50, pseudovirus neutralization [16]: 9.9 nM | IC80, pseudovirus neutralization [16]: 48.2 nM

bebtelovimab (antibody)
IC50, pseudovirus neutralization [2]: 1.88 nM | IC80, pseudovirus neutralization [2]: 3.74 nM | IC80, pseudovirus neutralization [13]: 1 nM | IC50, pseudovirus neutralization [17]: > 10000 nM | IC80, pseudovirus neutralization [17]: > 10000 nM | IC50, pseudovirus neutralization [18]: > 10 µg/mL | IC80, pseudovirus neutralization [18]: > 10 µg/mL | IC50, pseudovirus neutralization [14]: 1 nM | IC80, pseudovirus neutralization [14]: 7 nM | IC50, pseudovirus neutralization [19]: 0.00567 µg/mL | IC80, pseudovirus neutralization [19]: 0.0207 µg/mL | IC50, pseudovirus neutralization [15]: 8.52 nM | IC80, pseudovirus neutralization [15]: 14.8 nM | IC50, pseudovirus neutralization [6]: > 10000 nM | IC80, pseudovirus neutralization [6]: > 10000 nM | IC50, pseudovirus neutralization [10]: 3.28 nM | IC80, pseudovirus neutralization [10]: 26.9 nM | IC50, pseudovirus neutralization [11]: > 10000 nM | IC80, pseudovirus neutralization [11]: > 10000 nM | IC50, pseudovirus neutralization [20]: > 10 µg/mL | IC80, pseudovirus neutralization [20]: > 10 µg/mL | IC50, pseudovirus neutralization [16]: 14.3 nM | IC80, pseudovirus neutralization [16]: 18.5 nM
